Assay results taken from PMC11187873.
Several values for one entry are separate records, joined by “and”; a condition that tells them apart may be missing. Identical values can stand only once.

Key:
[1] = target: PR(T26A)‐RT model precursor (HIV‐1 isolate BH10); assay: SEC-MALS
[2] = target: PR‐RT model precursor (His6‐SUMO‐Δp6*‐PR(D25A)‐RT) (HIV‐1 isolate BH10); assay: SEC-MALS

Substance	stoichiometry N [1]	stoichiometry N [2]
PR(T26A)‐RT model precursor (domain or fragment)	2 and 4	
PR‐RT model precursor (His6‐SUMO‐Δp6*‐PR(D25A)‐RT) (domain or fragment)		2 and 4
